Target: GFP-tagged R2910Q UNC80 mutant (mouse) (mouse) (UniProt Q8BLN6)
Assay: co-IP; HEK293T co-transfected with NALCN or UNC79 and GFP-tagged UNC80 constructs; IP with anti-GFP, blot anti-NALCN or anti-UNC79; RIPA buffer (IP buffer with 0.5% deoxycholate and 0.1% SDS); 4 °C (Fig. 8a-c, f, g)

Chain of UniProt Q8BLN6 (Q8BLN6 whole entry R2910Q): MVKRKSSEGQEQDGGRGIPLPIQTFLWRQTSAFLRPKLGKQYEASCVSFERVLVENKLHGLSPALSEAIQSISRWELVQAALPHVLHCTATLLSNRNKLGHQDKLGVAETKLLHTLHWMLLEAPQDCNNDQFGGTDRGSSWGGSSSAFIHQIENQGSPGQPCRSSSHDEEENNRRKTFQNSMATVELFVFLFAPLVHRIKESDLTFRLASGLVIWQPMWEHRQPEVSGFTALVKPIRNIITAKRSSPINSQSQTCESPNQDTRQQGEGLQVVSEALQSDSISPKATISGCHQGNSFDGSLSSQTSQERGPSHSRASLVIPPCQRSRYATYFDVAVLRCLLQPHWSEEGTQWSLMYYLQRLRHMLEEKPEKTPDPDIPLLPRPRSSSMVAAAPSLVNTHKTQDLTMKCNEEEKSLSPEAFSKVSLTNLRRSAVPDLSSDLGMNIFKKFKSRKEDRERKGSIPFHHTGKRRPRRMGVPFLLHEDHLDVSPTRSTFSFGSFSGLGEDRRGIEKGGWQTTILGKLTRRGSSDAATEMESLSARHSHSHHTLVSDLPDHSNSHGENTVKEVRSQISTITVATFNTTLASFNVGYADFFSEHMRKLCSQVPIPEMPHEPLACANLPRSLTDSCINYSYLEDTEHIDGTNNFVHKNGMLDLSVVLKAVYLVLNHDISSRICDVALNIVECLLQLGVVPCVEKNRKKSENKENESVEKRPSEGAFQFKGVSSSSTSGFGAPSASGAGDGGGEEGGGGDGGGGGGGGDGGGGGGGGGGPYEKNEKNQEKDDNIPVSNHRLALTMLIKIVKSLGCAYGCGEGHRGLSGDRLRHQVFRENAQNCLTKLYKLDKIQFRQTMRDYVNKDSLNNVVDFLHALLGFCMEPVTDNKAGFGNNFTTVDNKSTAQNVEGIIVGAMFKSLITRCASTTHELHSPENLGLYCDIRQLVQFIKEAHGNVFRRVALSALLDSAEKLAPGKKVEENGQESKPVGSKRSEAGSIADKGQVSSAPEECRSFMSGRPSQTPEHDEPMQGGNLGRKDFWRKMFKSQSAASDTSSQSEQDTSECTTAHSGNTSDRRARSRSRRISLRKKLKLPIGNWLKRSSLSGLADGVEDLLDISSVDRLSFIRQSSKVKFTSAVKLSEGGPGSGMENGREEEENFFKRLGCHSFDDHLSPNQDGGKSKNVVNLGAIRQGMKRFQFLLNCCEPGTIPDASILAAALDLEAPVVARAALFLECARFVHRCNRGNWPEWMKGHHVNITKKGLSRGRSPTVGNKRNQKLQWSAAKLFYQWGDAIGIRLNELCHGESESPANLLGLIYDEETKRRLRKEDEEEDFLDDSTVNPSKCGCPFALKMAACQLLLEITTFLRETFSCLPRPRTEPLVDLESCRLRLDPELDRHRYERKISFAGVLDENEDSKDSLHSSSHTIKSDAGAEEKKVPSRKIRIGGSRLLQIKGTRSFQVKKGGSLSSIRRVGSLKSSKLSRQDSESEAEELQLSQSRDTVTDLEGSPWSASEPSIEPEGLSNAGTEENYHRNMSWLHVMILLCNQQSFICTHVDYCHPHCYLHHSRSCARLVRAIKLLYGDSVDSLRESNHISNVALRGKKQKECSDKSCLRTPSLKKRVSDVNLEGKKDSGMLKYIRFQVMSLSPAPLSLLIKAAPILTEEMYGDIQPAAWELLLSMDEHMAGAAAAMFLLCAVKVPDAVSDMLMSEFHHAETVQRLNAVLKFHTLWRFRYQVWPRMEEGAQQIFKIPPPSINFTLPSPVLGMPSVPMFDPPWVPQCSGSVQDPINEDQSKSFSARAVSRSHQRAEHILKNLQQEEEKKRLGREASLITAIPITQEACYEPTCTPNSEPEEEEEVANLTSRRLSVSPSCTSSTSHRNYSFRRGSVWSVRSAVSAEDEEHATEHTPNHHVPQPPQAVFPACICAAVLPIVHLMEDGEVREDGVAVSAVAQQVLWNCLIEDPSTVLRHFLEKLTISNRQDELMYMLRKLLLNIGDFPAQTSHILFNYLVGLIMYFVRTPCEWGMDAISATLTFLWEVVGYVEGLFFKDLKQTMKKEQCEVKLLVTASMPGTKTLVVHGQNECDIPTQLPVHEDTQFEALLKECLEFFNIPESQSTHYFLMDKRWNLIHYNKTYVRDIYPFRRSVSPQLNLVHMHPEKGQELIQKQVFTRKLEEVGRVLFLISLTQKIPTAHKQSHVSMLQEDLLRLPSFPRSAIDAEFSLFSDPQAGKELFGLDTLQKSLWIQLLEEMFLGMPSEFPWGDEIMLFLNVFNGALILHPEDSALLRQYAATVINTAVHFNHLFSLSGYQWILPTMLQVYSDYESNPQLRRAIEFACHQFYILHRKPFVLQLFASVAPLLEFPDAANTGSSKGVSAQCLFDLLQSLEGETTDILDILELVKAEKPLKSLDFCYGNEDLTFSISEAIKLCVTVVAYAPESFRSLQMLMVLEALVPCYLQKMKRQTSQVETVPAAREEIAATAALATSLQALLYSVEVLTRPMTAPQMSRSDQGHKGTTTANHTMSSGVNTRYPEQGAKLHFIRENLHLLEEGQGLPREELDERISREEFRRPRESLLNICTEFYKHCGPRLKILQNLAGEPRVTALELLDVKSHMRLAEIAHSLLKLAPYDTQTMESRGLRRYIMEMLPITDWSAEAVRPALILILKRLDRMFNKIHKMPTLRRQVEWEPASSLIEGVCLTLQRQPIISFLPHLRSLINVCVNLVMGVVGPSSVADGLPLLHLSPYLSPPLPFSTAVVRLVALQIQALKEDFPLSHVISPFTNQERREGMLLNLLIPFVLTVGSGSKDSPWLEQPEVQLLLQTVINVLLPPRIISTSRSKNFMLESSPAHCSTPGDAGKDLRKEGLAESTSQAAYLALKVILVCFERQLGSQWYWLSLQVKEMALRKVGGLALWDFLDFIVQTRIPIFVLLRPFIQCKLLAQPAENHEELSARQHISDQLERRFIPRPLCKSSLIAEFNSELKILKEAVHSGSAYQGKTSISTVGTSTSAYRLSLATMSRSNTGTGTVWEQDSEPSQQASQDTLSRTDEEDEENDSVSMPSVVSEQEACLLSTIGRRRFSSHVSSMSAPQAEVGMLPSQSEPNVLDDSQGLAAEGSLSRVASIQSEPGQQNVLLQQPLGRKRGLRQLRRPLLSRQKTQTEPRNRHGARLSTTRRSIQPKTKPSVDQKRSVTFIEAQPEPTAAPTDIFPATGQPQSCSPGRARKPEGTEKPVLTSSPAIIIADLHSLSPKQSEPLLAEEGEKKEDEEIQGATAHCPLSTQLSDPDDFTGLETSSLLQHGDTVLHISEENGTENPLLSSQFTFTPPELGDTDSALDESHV

## UNC79 (mouse), wild type, non-tagged, Q0KK59 1-2596
  reduction of apparent UNC80–UNC79 affinity (co-precipitated UNC79) against WT UNC80: 60%

From publication PMC7335163
